# Test results from paper PMC9250297.
# Experiments:
# [1] = target: HaloTag7 C262S single mutant (UniProt P0A3G2); test: SDS-PAGE gel shift assay
# [2] = target: HaloTag7 C61S single mutant (UniProt P0A3G2); test: SDS-PAGE gel shift assay
stoichiometry N [1],stoichiometry N [2],Substance
2,–,HaloTag7 C262S single mutant (from UniProt P0A3G2 1-293) (enzyme)
–,2,HaloTag7 C61S single mutant (from UniProt P0A3G2 1-293) (enzyme)
